pKd: −log10 of the molar value.

The target of assay [1] is CCL20 (Mus musculus) (UniProt O89093). The following applies: cited from earlier work.
Assay [2] addresses murine GPR182 (mGPR182), expressed from mGPR182 T2A GFP in 300.19 pre-B cells (mouse) (UniProt P43142). Briefly: flow cytometry on cells; competition scavenging at 37°C: 300.19 cells expressing mGPR182 or hGPR182 with 3 nM fluorescent chemokine and increasing concentrations of its unlabeled counterpart, 45 min. (In general: In flow cytometry, cells or beads pass a laser one at a time.)

Assay [3] concerns the target human GPR182 (hGPR182), expressed from hGPR182 T2A GFP in 300.19 pre-B cells (human) (UniProt O15218). The description is as above.

Turning to ACKR4 (from UniProt Q924I3), the pKd in assay [1] was 6.10.
For “hCXCL12, unlabeled (from UniProt P48061 22-93) (ligand)”, the Kd (competition scavenging) in assay [2] stood at 60 nM; in assay [3] it was 85 nM.

One may read the pKd as the negative decadic logarithm of the Kd, by convention in mol/L.

These data come from publication PMC10405735.
